Assay [1] deals with CD40 on peripheral blood B cells (CD3- CD19+ cells of PBMC) (UniProt P25942). In words: flow cytometry: PBMC stained with the secondary anti-His tag antibody alone (negative control); gate lymphoid, single, viable, CD3- CD19+ cells [panel B].
Assay [2] has the same target. Put plainly: flow cytometry: PBMC incubated with 0.043 uM His-tagged CD40L construct, secondary anti-His tag antibody; gate lymphoid, single, viable, CD3- CD19+ cells [panel B].

This is an account of results in patent publication US20260062491A1.

Control (antibody) registered an MFI in assay [1] of 99. In assay [2], WT (ligand) showed an MFI of 1300.

B1: EPC10 (ligand, not shown: small tags and cut ends)
chain: GDQNPQIAAHVISEASSTTTSVLQWAEKGYYTMSNNLVTLENGKQLTVKRQGLYYIYAQVTFCSNREASSQAPFIASLCLKSPGRFERILLRAANTHSSAKHCGQQSIHLGGVFELQPGASVFVNVTDPSQVSHGTGFTSFGLFKL
In assay [2], B1 had an MFI of 1180.

B2: EPC7 (ligand, not shown: small tags and cut ends)
chain: GDQNPQIAAHVISEASSKTTSVLQWAEKGYYTMSNNLVTLENGKQLTVKRQGLYYIYAQVTFCSNREASGQAPFIASLCLKSPGRFERILLRAANTHSSAKRCGQQSIHLGGVFELQPGASVFVNVTDPSQVSHGTGFTSFGLFKL
For the molecule B2, the MFI in assay [2] is 1360.
